# Measured values: the supplement of paper PMC6755084
# B1: F1*; the commonest letter at each place (parent)
# chain: GAGACCGCAACTGAAAAGTTGTTATCACTTGTCGTAAGACACTTTGGATGGGTTGAAGTTCTGCACGTAGAAGCAAAAGGC
# Variants of: B1
# Test: fraction ligated after 30 min (ligated reads / total reads); higher = more ligase activity
# Conditions: with F1*sub RNA substrate (template-directed ligation), 42 °C
# How it was run: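 Ligase ribozyme variants were made from oligo-pool templates by PCR amplification, T7 transcription and gel purification. After gel separation, ligated and unligated bands were reverse transcribed with barcoded primers and sequenced on a MiSeq, with core bases filtered at quality ≥20. The fraction ligated for each variant was the number of ligated reads divided by total reads.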
row,Variant,fraction ligated
1,GAGACCGCAACTGAAAAGTTGTTATCTCTTGTCGTAAGACACTTTGGAAGGGTTGAAGTTCTGCACGTAGAAGCAAAAGGC,0.76
2,GAGACCGCAACTGAAAAGTTGTTATCTCTTGTCGTAAGACACTTTGGACGGGTTGAAGTTCTGCACGTAGAAGCAAAAGGC,0.512
3,GAGACCGCAACTGAAAAGTTGTTATCTCTTGTCGTAAGACACTTTGGAGGGGTTGAAGTTCTGCACGTAGAAGCAAAAGGC,0.287
4,GAGACCGCAACTGAAAAGTTGTTATCTCTTGTCGCAAGACACTTTGGATGGGTTGAAGTTCTGCACGTAGAAGCAAAAGGC,0.811
5,GAGACCGCAACTGAAAAGTTGTTATCTCTTGTCGAAAGACACTTTGGATGGGTTGAAGTTCTGCACGTAGAAGCAAAAGGC,0.804
6,GAGACCGCAACTGAAAAGTTGTTATCTCTTGTCGGAAGACACTTTGGATGGGTTGAAGTTCTGCACGTAGAAGCAAAAGGC,0.804
7,GAGACCGCAACTGAAAAGTTGTTATCTCTTGTCGTAAGACACCTTGGATGGGTTGAAGTTCTGCACGTAGAAGCAAAAGGC,0.761
8,GAGACCGCAACTGAAAAGTTGTTATCTCTTGTCGTAAGACACATTGGATGGGTTGAAGTTCTGCACGTAGAAGCAAAAGGC,0.799
9,GAGACCGCAACTGAAAAGTTGTTATCTCTTGTCGTAAGACACGTTGGATGGGTTGAAGTTCTGCACGTAGAAGCAAAAGGC,0.784
10,GAGACCGCAACTGAAAAGTTGTTATCTCTTGTCGTAAGACATTTTGGATGGGTTGAAGTTCTGCACGTAGAAGCAAAAGGC,0.822
11,GAGACCGCAACTGAAAAGTTGTTATCTCTTGTCGTAAGACAGTTTGGATGGGTTGAAGTTCTGCACGTAGAAGCAAAAGGC,0.819
12,GAGACCGCAACTGAAAAGTTGTTATCTCTTGTCGTAAGACAATTTGGATGGGTTGAAGTTCTGCACGTAGAAGCAAAAGGC,0.809
13,GAGACCGCAACTGAAAAGTTGTTATCTCTTGTCGTAAGACACTTTCGATGGGTTGAAGTTCTGCACGTAGAAGCAAAAGGC,0.796
14,GAGACCGCAACTGAAAAGTTGTTATCTCTTGTCGTAAGACACTTTAGATGGGTTGAAGTTCTGCACGTAGAAGCAAAAGGC,0.817
15,GAGACCGCAACTGAAAAGTTGTTATCTCTTGTCGTAAGACACTTTTGATGGGTTGAAGTTCTGCACGTAGAAGCAAAAGGC,0.757
16,GAGACCGCAACTGAAAAGTTGTTATCTCTCGTCGTAAGACACTTTGGATGGGTTGAAGTTCTGCACGTAGAAGCAAAAGGC,0.804
17,GAGACCGCAACTGAAAAGTTGTTATCTCTGGTCGTAAGACACTTTGGATGGGTTGAAGTTCTGCACGTAGAAGCAAAAGGC,0.84
18,GAGACCGCAACTGAAAAGTTGTTATCTCTAGTCGTAAGACACTTTGGATGGGTTGAAGTTCTGCACGTAGAAGCAAAAGGC,0.775
19,GAGACCGCAACTGAAAAGTTGTTATCTCTTGTCGTAAGACACTTTGGATGGGTTAAAGTTCTGCACGTAGAAGCAAAAGGC,0.812
20,GAGACCGCAACTGAAAAGTTGTTATCTCTTGTCGTAAGACACTTTGGATGGGTTCAAGTTCTGCACGTAGAAGCAAAAGGC,0.749
21,GAGACCGCAACTGAAAAGTTGTTATCTCTTGTCGTAAGACACTTTGGATGGGTTTAAGTTCTGCACGTAGAAGCAAAAGGC,0.789
22,GAGACCGCAACTGAAAAGTTGTTATCTCTTGTCGTAAGACACTTTGGATTGGTTGAAGTTCTGCACGTAGAAGCAAAAGGC,0.616
23,GAGACCGCAACTGAAAAGTTGTTATCTCTTGTCGTAAGACACTTTGGATCGGTTGAAGTTCTGCACGTAGAAGCAAAAGGC,0.238

row,Variant,fraction ligated
1,GAGACCGCAACTGAAAAGTTGTTATCTCTTGTCGTAAGACACTTTGGATAGGTTGAAGTTCTGCACGTAGAAGCAAAAGGC,0.412
2,GAGACCGCAACTGAAAAGTTGTTATCTCTTGTCATAAGACACTTTGGATGGGTTGAAGTTCTGCACGTAGAAGCAAAAGGC,0.806
3,GAGACCGCAACTGAAAAGTTGTTATCTCTTGTCTTAAGACACTTTGGATGGGTTGAAGTTCTGCACGTAGAAGCAAAAGGC,0.771
4,GAGACCGCAACTGAAAAGTTGTTATCTCTTGTCCTAAGACACTTTGGATGGGTTGAAGTTCTGCACGTAGAAGCAAAAGGC,0.795
5,GAGACCGCAACTGAAAAGTTGTTATCTCTTGTGGTAAGACACTTTGGATGGGTTGAAGTTCTGCACGTAGAAGCAAAAGGC,0.838
6,GAGACCGCAACTGAAAAGTTGTTATCTCTTGTTGTAAGACACTTTGGATGGGTTGAAGTTCTGCACGTAGAAGCAAAAGGC,0.867
7,GAGACCGCAACTGAAAAGTTGTTATCTCTTGTAGTAAGACACTTTGGATGGGTTGAAGTTCTGCACGTAGAAGCAAAAGGC,0.84
8,GAGACCGCAACTGAAAAGTTGTTATCTATTGTCGTAAGACACTTTGGATGGGTTGAAGTTCTGCACGTAGAAGCAAAAGGC,0.829
9,GAGACCGCAACTGAAAAGTTGTTATCTTTTGTCGTAAGACACTTTGGATGGGTTGAAGTTCTGCACGTAGAAGCAAAAGGC,0.798
10,GAGACCGCAACTGAAAAGTTGTTATCTGTTGTCGTAAGACACTTTGGATGGGTTGAAGTTCTGCACGTAGAAGCAAAAGGC,0.802
11,GAGACCGCAACTGAAAAGTTGTTATCTCTTGTCGTAAGACACTTCGGATGGGTTGAAGTTCTGCACGTAGAAGCAAAAGGC,0.762
12,GAGACCGCAACTGAAAAGTTGTTATCTCTTGTCGTAAGACACTTGGGATGGGTTGAAGTTCTGCACGTAGAAGCAAAAGGC,0.16
13,GAGACCGCAACTGAAAAGTTGTTATCTCTTGTCGTAAGACACTTAGGATGGGTTGAAGTTCTGCACGTAGAAGCAAAAGGC,0.783
14,GAGACCGCAACTGAAAAGTTGTTATCTCTTGTCGTAAGACACTTTGGATGGGTTGAGGTTCTGCACGTAGAAGCAAAAGGC,0.794
15,GAGACCGCAACTGAAAAGTTGTTATCTCTTGTCGTAAGACACTTTGGATGGGTTGATGTTCTGCACGTAGAAGCAAAAGGC,0.804
16,GAGACCGCAACTGAAAAGTTGTTATCTCTTGTCGTAAGACACTTTGGATGGGTTGACGTTCTGCACGTAGAAGCAAAAGGC,0.775
17,GAGACCGCAACTGAAAAGTTGTTATCTCTTGTCGTAAGACACTTTGGATGGGTTGCAGTTCTGCACGTAGAAGCAAAAGGC,0.787
18,GAGACCGCAACTGAAAAGTTGTTATCTCTTGTCGTAAGACACTTTGGATGGGTTGGAGTTCTGCACGTAGAAGCAAAAGGC,0.791
19,GAGACCGCAACTGAAAAGTTGTTATCTCTTGTCGTAAGACACTTTGGATGGGTTGTAGTTCTGCACGTAGAAGCAAAAGGC,0.792
20,GAGACCGCAACTGAAAAGTTGTTATCTCTTGTCGTAAGACACTGTGGATGGGTTGAAGTTCTGCACGTAGAAGCAAAAGGC,0.846
21,GAGACCGCAACTGAAAAGTTGTTATCTCTTGTCGTAAGACACTCTGGATGGGTTGAAGTTCTGCACGTAGAAGCAAAAGGC,0.775
22,GAGACCGCAACTGAAAAGTTGTTATCTCTTGTCGTAAGACACTATGGATGGGTTGAAGTTCTGCACGTAGAAGCAAAAGGC,0.825
23,GAGACCGCAACTGAAAAGTTGTTATCTCTTGTCGTAAGACACTTTGGTTGGGTTGAAGTTCTGCACGTAGAAGCAAAAGGC,0.787

row,Variant,fraction ligated
1,GAGACCGCAACTGAAAAGTTGTTATCTCTTGTCGTAAGACACTTTGGGTGGGTTGAAGTTCTGCACGTAGAAGCAAAAGGC,0.794
2,GAGACCGCAACTGAAAAGTTGTTATCAATTGTCGTAAGACACTTTGGATGGGTTGAAGTTCTGCACGTAGAAGCAAAAGGC,0.809
3,GAGACCGCAACTGAAAAGTTGTTATCTCTTATCGTAAGACACTTTGGATGGGTTGAAGTTCTGCACGTAGAAGCAAAAGGC,0.848
4,GAGACCGCAACTGAAAAGTTGTTATCTCTTCTCGTAAGACACTTTGGATGGGTTGAAGTTCTGCACGTAGAAGCAAAAGGC,0.864
5,GAGACCGCAACTGAAAAGTTGTTATCTCTTTTCGTAAGACACTTTGGATGGGTTGAAGTTCTGCACGTAGAAGCAAAAGGC,0.862
6,GAGACCGCAACTGAAAAGTTGTTATCTCTTGTCGTAATACACTTTGGATGGGTTGAAGTTCTGCACGTAGAAGCAAAAGGC,0.799
7,GAGACCGCAACTGAAAAGTTGTTATCTCTTGTCGTAAAACACTTTGGATGGGTTGAAGTTCTGCACGTAGAAGCAAAAGGC,0.811
8,GAGACCGCAACTGAAAAGTTGTTATCTCTTGTCGTAACACACTTTGGATGGGTTGAAGTTCTGCACGTAGAAGCAAAAGGC,0.784
9,GAGACCGCAACTGAAAAGTTGTTATCTCTTGTCGTAAGACACTTTGAATGGGTTGAAGTTCTGCACGTAGAAGCAAAAGGC,0.801
10,GAGACCGCAACTGAAAAGTTGTTATCTCTTGTCGTAAGACACTTTGCATGGGTTGAAGTTCTGCACGTAGAAGCAAAAGGC,0.0127
11,GAGACCGCAACTGAAAAGTTGTTATCTCTTGTCGTAAGACACTTTGTATGGGTTGAAGTTCTGCACGTAGAAGCAAAAGGC,0.0847
12,GAGACCGCAACTGAAAAGTTGTTATCTCTTGTCGTAAGATACTTTGGATGGGTTGAAGTTCTGCACGTAGAAGCAAAAGGC,0.847
13,GAGACCGCAACTGAAAAGTTGTTATCTCTTGTCGTAAGAAACTTTGGATGGGTTGAAGTTCTGCACGTAGAAGCAAAAGGC,0.856
14,GAGACCGCAACTGAAAAGTTGTTATCTCTTGTCGTAAGAGACTTTGGATGGGTTGAAGTTCTGCACGTAGAAGCAAAAGGC,0.807
15,GAGACCGCAACTGAAAAGTTGTTATCTCGTGTCGTAAGACACTTTGGATGGGTTGAAGTTCTGCACGTAGAAGCAAAAGGC,0.805
16,GAGACCGCAACTGAAAAGTTGTTATCTCATGTCGTAAGACACTTTGGATGGGTTGAAGTTCTGCACGTAGAAGCAAAAGGC,0.803
17,GAGACCGCAACTGAAAAGTTGTTATCTCCTGTCGTAAGACACTTTGGATGGGTTGAAGTTCTGCACGTAGAAGCAAAAGGC,0.807
18,GAGACCGCAACTGAAAAGTTGTTATCAATTGTCGTCAGACACTTTGGATGGGTTGAAGTTCTGCACGTAGAAGCAAAAGGC,0.806
19,GAGACCGCAACTGAAAAGTTGTTATCAATTGTCGTGAGACACTTTGGATGGGTTGAAGTTCTGCACGTAGAAGCAAAAGGC,0.795
20,GAGACCGCAACTGAAAAGTTGTTATCTCTTGGCGTAAGACACTTTGGATGGGTTGAAGTTCTGCACGTAGAAGCAAAAGGC,0.838
21,GAGACCGCAACTGAAAAGTTGTTATCTCTTGACGTAAGACACTTTGGATGGGTTGAAGTTCTGCACGTAGAAGCAAAAGGC,0.874
22,GAGACCGCAACTGAAAAGTTGTTATCTCTTGCCGTAAGACACTTTGGATGGGTTGAAGTTCTGCACGTAGAAGCAAAAGGC,0.755
